Measured values from the domain aggregation screens of Martell et al. (2025).

Test: soluble fraction after stress (log2 fold change); higher = more stays soluble; pooled small domains, quantitative proteomics
Settings: stress: 50 degC
How it was run: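 Pooled custom libraries of small protein domains were each held under stress at 50°C. The read-out, high-throughput quantitative proteomics, tracked how much of each protein stayed soluble. This is reported as a base-two log fold change used to indicate aggregation propensity. Higher values mean more protein remains in solution.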

| Sequence | soluble fraction (log2) |
| --- | --- |
| HMNDAARQTTDILQHVRSSGSISFRDLWRLFMPFMAYRDFDAAVKSLVAAGHIATTENERKELHLIAF | -0.542 |
| HMGAAITEAEAKQIALDHAGVSESETERMRVKLGRDDGVQEYEVNFYVGNREYDYDINAATGEIRSHDSE | 0.0811 |
| HMSNTIFGINGPVVTVASKDFSMQEMVYVGNERLVGEVISIDDDLTTIQVYEVTTGLKPGEPVVGTGSAM | -0.531 |
| HMQLVGSSAAVLIPAPAGGLGKIRLEFRGQTIDLIAKATDGGALIEGGAVTIVDVRDGQADVSV | -0.552 |
| HMQEAGKWLKKLRTERKITLEQLSKKTGLSVGFLSQFERGLTSIAIDTLEKIAAVFNVTIDYFISP | 0.0423 |
| HMKGYIGESKARNIALKKAPGASITKFEFDKDDGIAVYEVELRKGIYEYELKINAVTGAIIEFEKDIE | -1.46 |
| HMYTVKELSRLTGLTPRTLRYYDAIGLLSPARNRDNDYRLYGGAEVDRLQEILLYREMGLPLEEIGRILD | -1.45 |
| HMGSTYGISRVDNETSRTHGWLVTIQRRGVIYRKHFSDGVFGGKQRSFAAAKEYRDEVIAAHP | -0.672 |
| HMLQVRRILQLLADGYSKRQISQQTAVSRNTIDSYEDRFHLTGKSYQELLSMEDGELSGIVYP | -0.424 |
| HMIYKLIADRLKNRINSDEFEVGDALPSEKALAGELEVSVMTIRKALTLLESEKLIVKRHGSGSYVARKSN | -0.429 |
| HMSTTILSFQNRVVIETLHNEGRSLRYIANYLGFSKATIFNELHRLNSEYRAELAQADFERKVSQR | -3.59 |
| HMGTLNLSQAYREWGMAEIEANRDYYGPVRFDDIAFQMSPAGQQLQARFVASYADRLHDAIEGEL | -0.304 |
| HMEEKKYEVGDVVSFNYLYKNSFAEGKVSSLIHSGTITRIIDGRPAPYLINRGTGWLSNDLILT | -0.958 |
| HMHAPLEVGSVVRIEGQKALGTILSISDREAIVALGALKTTIPLKRLHGVSPAEAQRHLRKTTPAQAVR | 0.0521 |
| HMRALPAGQADLLKWIDGVTPRSVEELELLSGLEPGRLSELLMELELAGIVRAVAGDSYIKISKS | -0.462 |
| HMFDPAKQMQRIRKYAGMNRKEFSEWLNIPYRTMTDWELGNRTMPVYLLELIVYKVNHEIANA | 0.186 |
| HMLDQSYYETANEIISRYPLEEKSLIPIIQDIQATYRYLPPDLLDYVAKKIGITETKAYSVASFYENFSF | -0.327 |
| HMEETIVFGQQKAINALSSDAGLSSNELDSYLKKRYKRPLYQLSKSEGAELIQGFQDGSLSKASIMDYVS | 0.169 |
| HMLLSFYGTYGNVKLTGKELEDLQKEFPFDYQARIDRLSAYMESSGRKYHSHFATIRSWAQDDAKKN | -1.79 |
| HMNLSNVVIRKVQEMILSGELQEGDKLPPEREMTQRLGIGRPALREGLKSLEMLGLVERRHGLGNFIINKV | -0.783 |
| HMTSKTLSADGGENTRLDKFLSNHLPEISRTKIQKMINDGLVYVNQNYAKASLVLDGTELISYTIPD | 0.0679 |
| HMRESLSEAERHPRYLEGEDVVRMFLLMGDLSRVEAEVIALQWNAQEADRVGLPQDAKVFRTRAR | -0.511 |
| HMKEHDTLALRLTAILRKLNDGEKLVPRELAEEFNVGIRTIQRDLTERLSFLDLEKTNGAYSLPTRNL | -0.428 |

| Sequence | soluble fraction (log2) |
| --- | --- |
| HMRQPAAVEYSTFLDWVHASQVERVVFEGDTIRGVRVTGEGFVTYSPETDNTALIGELKKSRVQISATAP | -0.153 |
| HMANTSAVIKQPGLVKLFAQHFVRNGFNAMKAAEAAGFVRPSPTFVRNLADSKPVKDAISELLGPYNDA | -0.0131 |
| HMAVPMTPGELVGSRVRVLWWKDGRGEVVALARGHQATLPARSEEPLRTGADAVVLEADEGTLVVTS | -0.0203 |
| HMEGSRASMDGQVPGKTSYLEWLARQPAQRQDQVLGAERGRLFRAGEIDLADMFTDKGEWISLERLKQLS | 0.221 |
| HMQNEKLSYFVTETIVTERADLFITKKFPQFSRSQIQKLINSGNITINSNPIKASTEIINKDNIEITIPV | -1.14 |
| HMVENATPEEREALNDIAMEAMGMVKDGKPTSAREFVQSQNLDNDQKILLWSLLDAPTRSALKTAEK | -0.133 |
| HMVMLIVMNHTASQADIDKVIEVVSGMGFTAAPIPGGERTAIGVLGNKGYVDDSTIRDLPGVQQAIHVSKP | 0.0615 |
| HMIDIDTILKKYKPGRRDELIPLMQEIQEVYGHLSEEAVVKIGTYVGLSTTKIYGLATFYDQFRF | -1.24 |
| HMDAIDPKTVTSWADLWKPEYKSSLLLTDDAREVFQMALRKLGYSGNTTDPKEIEAAYNELKKLMPNVAAF | -0.0387 |
| HMKIERKGDESYLSFVERATSALSDGLIDYQQWGRAVVGEDLYSEENTRRIAKFFAQFIQNLEND | -1.9 |
| HMVSNFEAEFGRHFAIFFPGSEFTELKLRLLEEGAELIDPIRDTPFERFFFKDPNGYIFEVIDKE | -2.28 |
| HMLSSEQQQKLDSLSRKELEVAELVSHGATNKMIARTMNITERTVKAHLTAIFQKMNIPDRLSLAIFFRDL | -2.44 |
| HMNVNFVQANLANLPNIQAIYQKGNEMLNDMKRGEAREIDEAYSRVDNGVGTEKDFKVLLSFRDKIIAAMQ | 0.362 |
| HMPLSLESVSEGGRNDTAARIAGYLIAKGLNVDFARFFLQSWNTKNKPPLDDTEIDTIVNSIMKTHERKNQ | -0.361 |
| HMTDYKTNLQEFLQQDGEVEIEYKLLAEVGPSHARQFEVDVMMGDRVLGSGVGRNKKAAEQAAAKVALSKL | -0.124 |
| HMQVAPQVERLLRVMGNETLSLSDIMGRMGLSDKKNFRESYLVPALRSAVIEMTIPDKPNSSLQKYRRIHE | -0.176 |
| HMKVQLGMNTREVRGIMGKPFSEDTFVEGEKRVDVLHYKEAVRVKTQGFILTTSLRFENDSLTAI | -1.74 |
| HMTNNFIVTWRNYNEEVLEIDVNVKKGSMPKYNGKTPEREGYQFVGWDPEITEVTKDITYVAQFM | -0.415 |
| HMTKLTPLEVNLYAKKLANDPEFGSKHIEPGESFSQAEERLRVQLSQQEYVQKYSKYLKKLKASA | 0.0851 |
| HMAQVVMPNVVGKTEKDATATLEGKNLKVNVEYNLDATSDDGIVKEQSIKSGENIDEGTEITLKVNKV | -1.07 |
| HMVDSVIGSVGRVTVDIDNVEALGQVKLGGMEWSARSTSGDPIPAGTEVRVDRVEGVKVFVTPV | -0.00113 |
| HMDLFREERRQAILDWLATAGRVSVAELSASFGVSEVTVRADLQALADRRLVVRTHGGAMMAG | -1.43 |
| HMLNPVEKLLLLSQLYIGRLKGSFVVKEKHHKSTILGEVRELSPEEITLKTDEGYRLIRVDDILTIQL | -2.18 |

| Sequence | soluble fraction (log2) |
| --- | --- |
| HMNDYNLTDREKEVLTFLFQGLEYKEIGMKMSVSPNTIRNHISNIYKKLHVTSKTQAIRVFLNN | -2.21 |
| HMERFMEFVITDTQQGQRLDVVLTETTEHLGSRSHMQRSIRAGLVSIDGITTTRASTKVSSGQIIRVEPT | -1.49 |
| HMLAKNDSGLNNHTFNAIRDALLEALADGPAEAKKLTENISFPSDKIITVIRFLADHDDRFSLEDGILSLT | -0.515 |
| HMNDFVTVPDLQGIFYSEAIKKIDKMGLKEGSIQFVNQDKFLPNTVLNQNPKEGTKVSQDSPINLIIS | 0.0352 |
| HMTNVDELIGKEAVVVKEIRPYTTGEVKLDGKVWRAMSESKQVYKVDEIVTVLRIEGVTMII | -0.419 |
| HMDRERFIKLGREIARAAFENVGKKATDKVLNSAAKKLRLEDGDEVLARLGSAEIEARSVVQAVYPDLI | 0.452 |
| HMLSRTYDSSGPDVKIRGTAQTVADKYMSLARDAQSSGDRVMAENYLQHAEHYNRIIAAAQAQ | 0.254 |
| HMNSVYTPDPKELAKAIKIVTAAREAEQKGQGVIAVDGRMVDAPVVSQALRILELARLAGMEVSE | 0.0244 |
| HMRPKAIFVDVDDTLVRSVGQTRIPMPAVIAHIRRLHDAGHQLYLWSSGGADYARASAEELGIGQYFQAFL | -0.26 |
| HMGIKAADIVTNDIQFNTQAQFDKYKDLYPTLGWGNYDPNKTYTMQGFKNKLKPNELFTGTPNLKIEDT | 0.141 |
| HMQEQIVQGIVKYFDAEKQFGFIAGDDGVDRFFNAKSIQGNAVKTGDRVRFLAISHIRGPRALKISA | -0.852 |
| HMIKVASVDGASDELAHEIREIMPLDFPVSYFDLDIKYLHKVLNDIPAVESAAIKVTVSGVLQIDISER | 0.43 |
| HMDDPDALITDSQLKAIHVLLGKLKIDDNLKHAYIADVLQLKDIPETLKTLTKHQGSTIIERLNLLIKDA | 0.0419 |
| HMTIRLKELRKQKGNTQAEVAKILGTNQSQYGKYENERTQLSLDNAKILSDYFGVSVPYLLGLDDNP | -0.0854 |
| HMYQRLPFSFANRYKMVLESQHPERAPILYYVEPLKSAAIIEVSRVVKNGFTPQAITLDEFDKKLTDAYQR | -0.908 |
| HMELLEVSVIIREADSTGWSAARQGMEQAAADLGAELRFLTLSQSNSAEEQRSLLAREVEGGADAVVLV | -0.142 |
| HMSLGTDVVPDFTGKGIKEAKTEFAAYSEGELYIIGEGEKVKEQFPLPGEKVNKNSDLILYV | 0.101 |
| HMYVKIAADAAMPYTIKRVVTDYSSAALDAAYDGSLPKWLTISSSTKDAGSGLYRHEIIYTVTAHPE | -0.68 |
| HMVSMSFDDYVNDAKEYESEGDKDKAYNSYLEAYKLNKSSEEVLDYLIDNTEDVTLKLNYVYEYLDL | -0.0996 |
| HMDLEIENYDLREILNLFKLDYNFDNVDLKRAQKIALKTHPDKSNLPKEYFMFFMKAFQIVQQIYYYRY | -0.47 |
| HMPLLADLPNLLRKVLKQHPGRVVDVDLERGRQGREIYHVRVLQENGQVRGLFVDASTGELVS | -0.224 |
| HMAELNLPVRKIGGEDYYYRQVKKKETIYGISKELGITKEDIIKYNPSVASGLQRNQILYFPVKDFK | -0.0957 |
